{"source": "patent US20250163169", "key": {"[1]": {"tested_on": "43-mer covering the stalk region of CD95L (residue 103 to residue 145)", "sequence (chain, as listed by the source)": "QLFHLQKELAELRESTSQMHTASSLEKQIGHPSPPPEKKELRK"}}}
{"substance": "MMP3", "values": [{"measurement": "percentage of degradation of the 43-mer (LC-MS/MS)", "setting": "[1]", "value": "more of 20% of cleavage"}, {"measurement": "cleavage of Ig-CD95L (western blotting)", "setting": "Recombinant Ig-CD95L", "value": "Using this Ig-CD95L, we showed that MMP2 and MMP3 can cleave CD95L"}]}
